From the supplement of paper PMC7125110
± gives the standard error. Fewer inactive variants are shown than the library holds.

B1: glmS ribozyme (parent)
chain: AUAAAAGCGCCAGAACUACAGAAAUGUAGUUGACGAGGAGGAGGUUUAUCGAAUUUUCGGCGGAUGCCUCCAAA

Experiments:
Conditions in all cases: with glucosamine-6-phosphate
[1] = variants of: B1; test: self-cleavage kobs at 160 uM GlcN6P; higher = faster cleavage; RNA array
Method in brief: (§1)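 Over ~14 h at 37 °C, tiles were imaged as glucosamine-6-phosphate (40 μM to 10 mM) in HEPES/KCl/Mg(OAc)2 buffer flowed across sequenced MiSeq chips. The chips carried barcoded ribozyme variants transcribed in situ by E. coli RNA polymerase and tracked with a hybridised Cy3 probe. After normalisation to baseline and to non-cleaving reference variants, one- or two-exponential decay fits of per-tile medians gave kobs. kcat and KM followed from weighted Michaelis–Menten fits across concentrations.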

[2] = variants of: B1; test: self-cleavage kobs at 640 uM GlcN6P; higher = faster cleavage; RNA array
Method in brief: as §1

[3] = variants of: B1; test: self-cleavage kobs at 2500 uM GlcN6P; higher = faster cleavage; RNA array
Method in brief: as §1

[4] = variants of: B1; test: self-cleavage kobs at 10000 uM GlcN6P; higher = faster cleavage; RNA array
Method in brief: as §1

Variant	self-cleavage kobs at 160 uM GlcN6P [1]	self-cleavage kobs at 640 uM GlcN6P [2]	self-cleavage kobs at 2500 uM GlcN6P [3]	self-cleavage kobs at 10000 uM GlcN6P [4]
U30A G35C	< 1e-05 s⁻¹	< 1e-05 s⁻¹	< 1e-05 s⁻¹	< 1e-05 s⁻¹
C11U A15C A33G G44U U49C A64C C70U	–	< 1e-05 s⁻¹	< 1e-05 s⁻¹	–
U45C A64U	< 1e-05 s⁻¹	< 1e-05 s⁻¹	–	–
G41C G66U	< 1e-05 s⁻¹	< 1e-05 s⁻¹	–	–
G32C G35A	< 1e-05 s⁻¹	< 1e-05 s⁻¹	< 1e-05 s⁻¹	< 1e-05 s⁻¹
C58G C68G C71U	9.65e-05 ± 2.3e-05 s⁻¹	–	–	–
A12C G43A C61U	–	< 1e-05 s⁻¹	< 1e-05 s⁻¹	–
G41A U49C G60U	–	< 1e-05 s⁻¹	–	–
U30C G62A C68G	< 1e-05 s⁻¹	< 1e-05 s⁻¹	< 1e-05 s⁻¹	< 1e-05 s⁻¹
G7U U55G U57C	–	< 1e-05 s⁻¹	< 1e-05 s⁻¹	< 1e-05 s⁻¹
G9A C68A U69C	–	< 1e-05 s⁻¹	–	–
G32U G38U U54G	< 1e-05 s⁻¹	–	–	–
C8G C70U	< 1e-05 s⁻¹	< 1e-05 s⁻¹	< 1e-05 s⁻¹	< 1e-05 s⁻¹
U45C A53C C67U	< 1e-05 s⁻¹	5.23e-05 ± 1.6e-05 s⁻¹	6.03e-05 ± 1.8e-05 s⁻¹	–
A36G C58A G60A	< 1e-05 s⁻¹	< 1e-05 s⁻¹	–	< 1e-05 s⁻¹
G9U A53C	< 1e-05 s⁻¹	< 1e-05 s⁻¹	–	< 1e-05 s⁻¹
A14G C16G U30C	–	9.39e-05 ± 1.9e-05 s⁻¹	–	–
U56A C58G G59A G60A	–	< 1e-05 s⁻¹	< 1e-05 s⁻¹	–
G29U G32C A36G	< 1e-05 s⁻¹	< 1e-05 s⁻¹	–	–
G9U C10G C11A	–	< 1e-05 s⁻¹	–	–
G44C C68A U69G	–	< 1e-05 s⁻¹	–	–
A15U U31C U55G G63U	–	< 1e-05 s⁻¹	–	–
A36C U46G A52G G60U	< 1e-05 s⁻¹	< 1e-05 s⁻¹	< 1e-05 s⁻¹	–
G38A U57A	–	< 1e-05 s⁻¹	–	< 1e-05 s⁻¹
A33G U45G U69A	< 1e-05 s⁻¹	< 1e-05 s⁻¹	–	–
A15U C50G C71G	–	0.000108 ± 2.6e-05 s⁻¹	0.000148 ± 5.1e-05 s⁻¹	–
G40U C67G	< 1e-05 s⁻¹	< 1e-05 s⁻¹	–	–
U31G G35C C68G	–	< 1e-05 s⁻¹	< 1e-05 s⁻¹	–

Variant	self-cleavage kobs at 160 uM GlcN6P [1]	self-cleavage kobs at 640 uM GlcN6P [2]	self-cleavage kobs at 2500 uM GlcN6P [3]	self-cleavage kobs at 10000 uM GlcN6P [4]
A6U U69G	–	0.000103 ± 2.3e-05 s⁻¹	4.72e-05 ± 1.4e-05 s⁻¹	–
C10A A14G U69G	0.000148 ± 5.1e-05 s⁻¹	0.000195 ± 7.6e-05 s⁻¹	6.53e-05 ± 2.3e-05 s⁻¹	–
C34A C50G	5.9e-05 ± 1.6e-05 s⁻¹	0.000448 ± 0.00021 s⁻¹	–	–
G43A U49C G66A C70G	< 1e-05 s⁻¹	< 1e-05 s⁻¹	< 1e-05 s⁻¹	–
G13C G29U G41U C68A C70A	–	< 1e-05 s⁻¹	–	–
C8A U31C G32A	–	< 1e-05 s⁻¹	–	–
G41A C58A U69A	–	< 1e-05 s⁻¹	< 1e-05 s⁻¹	–
C8G G66A	< 1e-05 s⁻¹	< 1e-05 s⁻¹	< 1e-05 s⁻¹	–
C8G G63A C70G	< 1e-05 s⁻¹	< 1e-05 s⁻¹	< 1e-05 s⁻¹	–
A33U G41A C58A U65G	–	< 1e-05 s⁻¹	< 1e-05 s⁻¹	–
A33C U57G	< 1e-05 s⁻¹	–	–	–
G40A A42G A53U	–	0.000733 ± 0.00023 s⁻¹	0.000522 ± 0.00021 s⁻¹	–
G29U G32U G38A C61A C67U	–	0.000133 ± 3.8e-05 s⁻¹	0.00034 ± 9.8e-05 s⁻¹	–
G9C C34G C61G	< 1e-05 s⁻¹	–	< 1e-05 s⁻¹	< 1e-05 s⁻¹
A6U U56G U65A C67A	–	9.86e-05 ± 3e-05 s⁻¹	0.000119 ± 2.9e-05 s⁻¹	–
C16U A42U C58A G59C G60C	–	< 1e-05 s⁻¹	–	–
G35U A48C C68A	–	< 1e-05 s⁻¹	–	–
C8U C16U C71A	–	< 1e-05 s⁻¹	–	–
G9U A36C A39G C70U	–	< 1e-05 s⁻¹	–	–
U49C G51C G60C C68U	< 1e-05 s⁻¹	< 1e-05 s⁻¹	< 1e-05 s⁻¹	–
A36U U45C	< 1e-05 s⁻¹	< 1e-05 s⁻¹	< 1e-05 s⁻¹	< 1e-05 s⁻¹
A12G U30A A52C U54C	–	< 1e-05 s⁻¹	< 1e-05 s⁻¹	–
G13A G35U G66U C67G	< 1e-05 s⁻¹	–	< 1e-05 s⁻¹	–
U45C G62U	< 1e-05 s⁻¹	< 1e-05 s⁻¹	< 1e-05 s⁻¹	< 1e-05 s⁻¹
A6U G51C U56A U69G C70A	–	0.000269 ± 8e-05 s⁻¹	–	–
G7U A33C U47A	–	< 1e-05 s⁻¹	< 1e-05 s⁻¹	–
C16G G51U G60C	< 1e-05 s⁻¹	< 1e-05 s⁻¹	< 1e-05 s⁻¹	–
